Values belong to the molecule of their own block, whether it stands above or below them.
Assays:
[1] = biological target: ビオチン化EpoR(Abbott CHO細胞由来 ref.#RB69084:4) (UniProt P19235); experiment: immunofluorescence microscopy on EpoR-coated sheep red cells, MAB307 plus Alexa488 anti-mouse IgG Fc
全長組換えヒトEPO受容体(CHO細胞に発現) = biological target: T1, 全長組換えヒトEPO受容体(CHO細胞に発現) (human, UniProt P19235 25-508); experiment: competition with 125I-EPO on CHO cells expressing full-length human EPO receptor
T1 construct: whole, on cells; also called 組換えEPO受容体を発現するCHO細胞; エリスロポエチン受容体
T1 sequence (looked up): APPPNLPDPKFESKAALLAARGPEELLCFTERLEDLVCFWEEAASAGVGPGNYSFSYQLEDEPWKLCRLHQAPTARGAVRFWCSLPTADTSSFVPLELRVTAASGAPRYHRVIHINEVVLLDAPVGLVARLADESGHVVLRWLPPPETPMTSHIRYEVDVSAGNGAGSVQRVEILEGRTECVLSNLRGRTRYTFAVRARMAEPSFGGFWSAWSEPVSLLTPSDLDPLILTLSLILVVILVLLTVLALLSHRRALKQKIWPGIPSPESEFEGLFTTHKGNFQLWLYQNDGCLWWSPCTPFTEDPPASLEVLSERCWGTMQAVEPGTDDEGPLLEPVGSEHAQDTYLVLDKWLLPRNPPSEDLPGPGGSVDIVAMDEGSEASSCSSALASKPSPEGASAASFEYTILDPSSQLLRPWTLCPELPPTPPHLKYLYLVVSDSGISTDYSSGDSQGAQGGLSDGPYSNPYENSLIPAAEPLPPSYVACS

[2] = biological target: T2, 可溶性EPO受容体(sEPOR)(R&D Systems Cat.#307-ER/LF) (human, UniProt P19235 25-250); experiment: BIAcore (antibody immobilised, soluble human EPO receptor injected), as paragraph 65 attributes it; values not given
T2 construct: extracellular domain; The ELISA paragraph names only 'soluble EPO receptor' with the catalogue number; also called sEPOR; 固相化エリスロポエチン受容体
T2 sequence (looked up): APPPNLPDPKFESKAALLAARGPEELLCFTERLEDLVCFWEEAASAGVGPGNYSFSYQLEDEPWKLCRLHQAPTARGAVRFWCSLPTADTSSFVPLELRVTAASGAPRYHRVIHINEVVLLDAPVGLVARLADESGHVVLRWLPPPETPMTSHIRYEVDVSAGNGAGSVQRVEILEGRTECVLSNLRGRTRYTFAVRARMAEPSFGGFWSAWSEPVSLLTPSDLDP

[3] = biological target: ヒトエリスロポエチン受容体(UT-7/Epo細胞・F36E細胞上) (human), P19235; experiment: cell-based or functional assay
ペプチドSE−3 = biological target: T3, ペプチドSE−3 (human); experiment: ELISA on plate-coated SE-3 peptide (5 μg/ml), anti-human IgG (Fc)-HRP
T3 construct: also called SE-3; SE-3ペプチド
T3 peptide: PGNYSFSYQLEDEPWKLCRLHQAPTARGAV

- immunofluorescence score (0-4 scale) [1]: 4 of 4
Molecule: マウス抗EpoR抗体(R&D Systems Cat.# MAB307) (antibody)

- binding result (全長組換えヒトEPO受容体(CHO細胞に発現)): binds
- binding result [2]: binds
B1: Ab198 (antibody, V domains shown)
VH: QVQLVESGGGVVQPGRSLRLSCVASGFTFSSYGMHWVRQAPGKGLEWVAVISYDGSNKYYADSVKGRFTISRDNSKNTLYLQMNSLRVEDTAVYYCARDHGGRYVYDYGMDVWGQGTTVTVSS
VL: DIQMTQSPSSVSASIGDRVSITCRASQGISSWLAWYQQKPGKAPTLLIYAASTLQRGVPSRFSGSGSGTDFTLTISSLQPEDFATYFCQQANSFPFTFGPGTKVDIK
notes: These were not used; also called AB-ABT2-XG2-198; ABT2-XG2-198

- F36E細胞の増殖:EPO対照との最大応答の差(モル当量基準) [3]: 10 倍
- binding result (ペプチドSE−3): no binding (tested: 5 μg/ml Ab12)
- binding result (全長組換えヒトEPO受容体(CHO細胞に発現)): binds
- binding result [2]: binds
B2: Ab12 (antibody, V domains shown)
VH: QVQLQESGPGLVKPSETLSLTCTVSGASISSYYWSWIRQPPGKGLEWIGYIYYSGSTNYNPSLKSRVTISVDTSKNQFSLKLRSVTAADTAVYYCARERLGIGDYWGQGTLVTVSS
VL: DIQLTQSPSSLSASVGDRVTITCRASQGIRNDLGWYQQKPGKAPKRLIYAASSLQSGVPSRFSGSGSGTEFTLTISSLQPEDFATYYCLQHNTYPPTFGQGTKVEIK
notes: Human antibody (XenoMouse XG2); also called AB-ABT2-XG2-012; ABT2-XG2-012

Reference: patent JP2006523083A (dated 2006)
